Measured values from the supplement of paper PMC11246515.
± gives the standard deviation of the averaged measurements.

Experiment: total protein half-life in vivo (active degradation + dilution); higher = more stable protein
[1] = E. coli NCM3722 delta-clpP delta-lon delta-hslV, growth: N-lim chemostat, doubling time 6 h
[2] = E. coli NCM3722 delta-hslV, growth: N-lim chemostat, doubling time 6 h
[3] = E. coli NCM3722 delta-lon, growth: N-lim chemostat, doubling time 6 h
[4] = E. coli NCM3722 delta-smpB, growth: N-lim chemostat, doubling time 6 h
[5] = wild type E. coli NCM3722, growth: C-lim chemostat, doubling time 3 h
[6] = wild type E. coli NCM3722, growth: C-lim chemostat, doubling time 6 h
[7] = wild type E. coli NCM3722, growth: N-lim chemostat, doubling time 6 h
[8] = wild type E. coli NCM3722, growth: N-lim chemostat, doubling time 12 h
[9] = wild type E. coli NCM3722, growth: P-lim chemostat, doubling time 12 h
[10] = E. coli NCM3722 delta-clpP, growth: N-lim chemostat, doubling time 6 h
[11] = wild type E. coli NCM3722, growth: C-lim chemostat, doubling time 12 h
[12] = wild type E. coli NCM3722, growth: P-lim chemostat, doubling time 6 h

Sequence	total protein half-life in vivo [1] [h]	total protein half-life in vivo [2] [h]	total protein half-life in vivo [3] [h]	total protein half-life in vivo [4] [h]	total protein half-life in vivo [5] [h]	total protein half-life in vivo [6] [h]	total protein half-life in vivo [7] [h]	total protein half-life in vivo [8] [h]	total protein half-life in vivo [9] [h]	total protein half-life in vivo [10] [h]	total protein half-life in vivo [11] [h]	total protein half-life in vivo [12] [h]
MKKKRPVLQDVADRVGVTKMTVSRFLRNPEQVSVALRGKIAAALDELGYIPNRAPDILSNATSRAIGVLLPSLTNQVFAEVLRGIESVTDAHGYQTMLAHYGYKPEMEQERLESMLSWNIDGLILTERTHTPRTLKMIEVAGIPVVELMDSKSPCLDIAVGFDNFEAARQMTTAIIARGHRHIAYLGARLDERTIIKQKGYEQAMLDAGLVPYSVMVEQSSSYSSGIELIRQARREYPQLDGVFCTNDDLAVGAAFECQRLGLKVPDDMAIAGFHGHDIGQVMEPRLASVLTPRERMGSIGAERLLARIRGESVTPKMLDLGFTLSPGGSI [P0ACP5]	6.42 ± 0.18	5.79 ± 0.47	5.99 ± 1	5.75 ± 0.31	> 4	6.6 ± 0.52	6.14 ± 0.46	14.4 ± 1.9	> 16	–	–	–
MKKKTTLSEEDQALFRQLMAGTRKIKQDTIVHRPQRKKISEVPVKRLIQEQADASHYFSDEFQPLLNTEGPVKYVRPDVSHFEAKKLRRGDYSPELFLDLHGLTQLQAKQELGALIAACRREHVFCACVMHGHGKHILKQQTPLWLAQHPHVMAFHQAPKEYGGDAALLVLIEVEEWLPPELP [P0A8B2]	3.99 ± 0.33	3.03 ± 0.56	–	3.68 ± 0.36	2.46 ± 0.48	3.84 ± 0.16	2.99 ± 0.086	3.87 ± 0.36	6 ± 0.6	2.898 ± 0.019	5.34	3.06 ± 0.1
MKKLAIAGALLLLAGCAEVENYNNVVKTPAPDWLAGYWQTKGPQRALVSPEAIGSLIVTKEGDTLDCRQWQRVIAVPGKLTLMSDDLTNVTVKRELYEVERDGNTIEYDGMTMERVDRPTAECAAALDKAPLPTPLP	7.04 ± 1.3	6.36 ± 0.14	7.26 ± 0.97	6.12 ± 0.1	3 ± 0.23	6.16 ± 0.61	4.4 ± 3.5	12.5 ± 0.86	12.4 ± 0.42	6.08 ± 0.62	–	6.19 ± 0.15
MKKLFIQFYLLLFVCFLVMSLLVGLVYKFTAERAGKQSLDDLMNSSLYLMRSELREIPPHDWGKTLKEMDLNLSFDLRVEPLSKYHLDDISMHRLRGGEIVALDDQYTFLQRIPRSHYVLAVGPVPYLYYLHQMRLLDIALIAFIAISLAFPVFIWMRPHWQDMLKLEAAAQRFGDGHLNERIHFDEGSSFERLGVAFNQMADNINALIASKKQLIDGIAHELRTPLVRLRYRLEMSDNLSAAESQALNRDISQLEALIEELLTYARLDRPQNELHLSEPDLPLWLSTHLADIQAVTPDKTVRIKTLVQGHYAALDMRLMERVLDNLLNNALRYCHSTVETSLLLSGNRATLIVEDDGPGIAPENREHIFEPFVRLDPSRDRSTGGCGLGLAIVHSIALAMGGTVNCDTSELGGARFSFSWPLWHNIPQFTSA	–	6.14 ± 0.51	–	6.03 ± 0.18	2.755 ± 0.017	6.26	6.3	10.1 ± 2.2	11.4 ± 0.61	–	12.5 ± 4.9	5.97 ± 0.2
MKKLILIAIMASGLVACAQSTAPQEDSRLKEAYSACINTAQGSPEKIEACQSVLNVLKKEKQHQQFADQESVRVLDYQQCLRATQTGNDQAVKADCDKVWQEIRSNNK	–	–	–	5.85	–	–	–	> 16	–	–	9.68 ± 2.6	–
MKKLLPILIGLSLSGFSSLSQAENLMQVYQQARLSNPELRKSAADRDAAFEKINEARSPLLPQLGLGADYTYSNGYRDANGINSNATSASLQLTQSIFDMSKWRALTLQEKAAGIQDVTYQTDQQTLILNTATAYFNVLNAIDVLSYTQAQKEAIYRQLDQTTQRFNVGLVAITDVQNARAQYDTVLANEVTARNNLDNAVEQLRQITGNYYPELAALNVENFKTDKPQPVNALLKEAEKRNLSLLQARLSQDLAREQIRQAQDGHLPTLDLTASTGISDTSYSGSKTRGAAGTQYDDSNMGQNKVGLSFSLPIYQGGMVNSQVKQAQYNFVGASEQLESAHRSVVQTVRSSFNNINASISSINAYKQAVVSAQSSLDAMEAGYSVGTRTIVDVLDATTTLYNAKQELANARYNYLINQLNIKSALGTLNEQDLLALNNALSKPVSTNPENVAPQTPEQNAIADGYAPDSPAPVVQQTSARTTTSNGHNPFRN	6.4 ± 0.68	7.27 ± 0.62	6.96 ± 0.25	6.09 ± 0.28	3.15 ± 0.091	6.46 ± 0.065	5.95 ± 0.79	13.3 ± 0.99	10.7 ± 0.21	–	12.5 ± 0.56	5.09 ± 0.13
MKKLQIAVGIIRNENNEIFITRRAADAHMANKLEFPGGKIEMGETPEQAVVRELQEEVGITPQHFSLFEKLEYEFPDRHITLWFWLVERWEGEPWGKEGQPGEWMSLVGLNADDFPPANEPVIAKLKRL	4.64 ± 0.53	4.58 ± 0.57	5.1	5.16 ± 1.3	3.35 ± 0.21	5.04 ± 0.078	4.16 ± 0.41	6.87 ± 0.51	11 ± 1.5	–	9.03 ± 0.32	4.48 ± 0.6
MKKLRIGVVGLGGIAQKAWLPVLAAASDWTLQGAWSPTRAKALPICESWRIPYADSLSSLAASCDAVFVHSSTASHFDVVSTLLNAGVHVCVDKPLAENLRDAERLVELAARKKLTLMVGFNRRFAPLYGELKTQLATAASLRMDKHRSNSVGPHDLYFTLLDDYLHVVDTALWLSGGKASLDGGTLLTNDAGEMLFAEHHFSAGPLQITTCMHRRAGSQRETVQAVTDGALIDITDMREWREERGQGVVHKPIPGWQSTLEQRGFVGCARHFIECVQNQTVPQTAGEQAVLAQRIVDKIWRDAMSE	5.47 ± 0.24	5.7 ± 0.25	6.04 ± 0.96	4.86 ± 0.11	3.12 ± 0.51	5.88 ± 0.12	4.96 ± 0.26	9.402 ± 0.04	12 ± 0.19	5.38 ± 1.1	11 ± 0.34	6.2 ± 0.17
